Results: patent US6352972

Target: collagen (collagen-coated wells, source not stated)
Test: cell-based or functional assay

proliferation of 3T3 cells: 15 fold
Substance: human platelet-derived TGFβ1 (commercial) (from UniProt P01137 279-390) (ligand)
